These results are taken from the supplement of paper PMC9170038.

The test system of the data set is MS2 coat protein. Description: apparent KD of MS2 coat protein; designed switch direction (-1 OFF switch, 1 ON switch): 1; higher = weaker reporter binding. The gist of the method: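 Normalised cluster fluorescence was curve-fitted, and each design's median over clusters is its apparent KD. Before this, SNAP-549-labelled MS2 coat protein was titrated from 0.7 or 1.5 nM, doubling to 3 µM, over RNA switches transcribed on Illumina chips by stalled E. coli RNA polymerase. Titrations had no input, 200 uM small-molecule ligand, or an oligonucleotide input, and steps lasted 0.8–1.5 h (lowest) to 10–20 min (highest).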

Setting [1] is: input ligand: microRNA oligo, concentration not stated.
[2] abbreviates: Eterna round: R95, input ligand: FMN 200 uM.
The mark [3] stands for this setting: Eterna round: R95, input ligand: microRNA oligo, concentration not stated.
The mark [4] stands for this setting: Eterna round: R95, input ligand: none.

Regarding “ACAUGAGACCUAGGAUAUUUUGUACCUACAUGUGACAUGAGGAUCACCCAUGUGGUAAGUAUGAGAAAGAAGGAGGAGAUAUGU [Equivalence 21 - Jieux - Same State NG 2] (Eterna round: R96, puzzle: Same State NG 2)”, the “apparent KD of MS2 coat protein” value is 18.1 nM (input ligand: FMN 200 uM), 30.1 nM under setting [1] and 36.7 nM (input ligand: none).
Taken in the same sequence, the figures for “ACAUGAGAGCGAGGAUAUAUUGUACCUACAUGUGACAUGAGGAUCACCCAUGUGGUAAGUAUGACAUAGAAGGCGCAGAUAUGU [Equivalance 91 - Jieux - Same State NG 2] (Eterna round: R96, puzzle: Same State NG 2)” were 21.4 nM, 27.8 nM and 33.7 nM.
In the same order, the values of “ACAUGAGGAUCACCCAUGUAACACCUGAAAAUAAAACGAACACAGGAUAUCCCGACAUGACGUUGGGAGAAGGGUGAUCGAAGA [Leenrien] (Eterna round: R96, puzzle: Same State NG 3)” are 269 nM, 202 nM and 29.6 nM.
For “ACAUGAGGAUCACCCAUGUAUAGAUUUGAAUGUUAAGUUACGUAGGAUAUCGUGUUUAGUAUGAUCGAGAAGGACGAUCUGAUA [JR_SSNG3_Sub066] (Eterna round: R96, puzzle: Same State NG 3)”, the “apparent KD of MS2 coat protein” value under setting [1] came to 18.6 nM.
As to “ACAUGAGGCGCAGGAUAUACAGUUGUAUAACAUGAGGACAUGACAUGAGGAUCACCCAUGUCCCAGUAGAAGGGCGAACAUGAG [Same State NG2 S2] (Eterna round: R96, puzzle: Same State NG 2)”, the “apparent KD of MS2 coat protein” value runs as follows: (input ligand: FMN 200 uM) 172 nM; under setting [1], 102 nM; (input ligand: none) 144 nM.
Turning to “ACCCAAAGUAUAUGGGAACGAGCUUUUUAACAUGAGGAUCACCCAUGUACUCGUCUUAUAAGCAGUCGAAAGACUGC [Sensor 100 - 3] (puzzle: Sensor for hsa-mir-208a)”, the “apparent KD of MS2 coat protein” value is, setting by setting: under setting [2], 359 nM; under setting [3], 19.2 nM; under setting [4], 390 nM.
For “ACGCAGCUGGGUGAGGAUAUCGGUGGUAAAACAUGAGGAUCACCCAUGUCCGAAGCUCGGACUUCCGAGAAGGCGCCCGGCUGCG [Soinraesar] (puzzle: Same State 2)”, the “apparent KD of MS2 coat protein” value is 11.4 nM under setting [2], 104 nM under setting [3] and 103 nM under setting [4].
Regarding “ACGCCCUCAGUAGGAUAUGGGAAAGGAAGUGUACCAGAAGGACUGGUUGAACAUGAGGAUCACCCAUGUUCAACGACAGGGCGA [PowerStrip SSNG 1.25] (Eterna round: R96, puzzle: Same State NG 1)”, the “apparent KD of MS2 coat protein” value (input ligand: FMN 200 uM) stood at 18.9 nM, the “apparent KD of MS2 coat protein” value under setting [1] worked out at 14 nM and the “apparent KD of MS2 coat protein” value (input ligand: none) was 22.8 nM.
For “ACUCUCACAGUAGGAUAUGUAGGAUAUGCCUACAUGAGGAUCACCCAUGUAAACAUGGCAGAAGGAUAGAAGGACUUACAUUGG [pwkr ssNG2 2FMN + 1F5.1] (Eterna round: R96, puzzle: Same State NG 2)”, the “apparent KD of MS2 coat protein” value is, setting by setting: (input ligand: FMN 200 uM) 495 nM; under setting [1], 577 nM; (input ligand: none) 762 nM.
As to “ACUUACAUGGUAGGAUAUGUCCGUCUAGCUGACACAGAAGGGCCAAGCUCUACGACAUGAGGAUCACCCAUGUGAAGGAGAGGC [Eternabot solution 49] (Eterna round: R96, puzzle: Same State NG 1)”, the “apparent KD of MS2 coat protein” value reads like this: (input ligand: FMN 200 uM) 15.1 nM; under setting [1], 13.6 nM; (input ligand: none) 18.3 nM.
As to “AGAAAACAUGAGGAUCACCCAUGUAUAGUGAAUACAGGAUAUCACCGACGGAAUAAUUGGUGAGAAGGGUGAUCGC [Ceaqu] (puzzle: Same State 1)”, the “apparent KD of MS2 coat protein” value runs as follows: under setting [2], 21.2 nM; under setting [3], 11.8 nM; under setting [4], 23.2 nM.
Taken in the same sequence, the figures for “AGAGAACAUGAGGAUCACCCAUGUAGGAUGGGCAUAGGAUAUAGAAGGAUGAGGGAGAAACUAGAAGGAUGAUGGA [JR_SS1_Sub077] (puzzle: Same State 1)” were 124 nM, 152 nM and 278 nM.
In the same order, the values of “AGAGCCGGCACUGAGGAUAUUCAUAAUAAAACAUGAGGAUCACCCAUGUAGGCCAGAAGGCCUUGGGAGAAGGCAGGUCGGCUCG [Mat - Same State 2 - Mod of UCT - D68] (puzzle: Same State 2)” are 17.3 nM, 122 nM and 200 nM.
On to “AGAUCAUGACGAGGAUAUGCAACAUGAGGAUCACCCAUGUAUGUUGCAGGACGCGUACGUCCAAUGUAGAAGGCGUCGUGGUCA [JL SSNG2 1.06] (Eterna round: R96, puzzle: Same State NG 2)”, for which the “apparent KD of MS2 coat protein” value runs as follows: (input ligand: FMN 200 uM) 40.2 nM; under setting [1], 146 nM; (input ligand: none) 150 nM.
Taken in the same sequence, the figures for “AGAUGUUAAUCAGGAUAUGGGCACAUGAGGAUCACCCAUGUAAAUUAGAUACUAUGUGGUCAAGUCUAGAAGGGAUGGCUAACA [SameState NG2 #81] (Eterna round: R96, puzzle: Same State NG 2)” were 346 nM, 145 nM and 182 nM.
As for “AGCAUACAUGAGGAUCACCCAUGUCAACUUAGUCGAGGAUAUGGGCAGCCGUGAGGCGAACCAGAAGGCGAAUUGA [Mat - Same State 1 - Mod of JL - D2] (puzzle: Same State 1)”, the “apparent KD of MS2 coat protein” value is, setting by setting: under setting [2], 18.5 nM; under setting [3], 28.1 nM; under setting [4], 26.2 nM.
Taken in the same sequence, the figures for “AGCGAGAUAGGCAAGGAUAUGCUGGGUUGCACAUGAGGAUCACCCAUGUCAUUGGUUAUGGCCGAGCAGAAGGUGCAUUCUCUUU [ak bound state near shape] (puzzle: Same State 2)” were 19.5 nM, 75.6 nM and 66.5 nM.
Consider “AGCUAAAACGAAGGAUAUACUGACAUGAGGAUCACCCAUGUCUACAUGAUUUAUUGUGAUCACAUGUAGAAGGUCGUACUAACA [SameState NG2 #22] (Eterna round: R96, puzzle: Same State NG 2)”, for which the “apparent KD of MS2 coat protein” value under setting [1] is 58.5 nM.
On the same count and under the same terms, the result for “AGCUAGUACCGAGGAUAUACAUACAUGAGGAUCACCCAUGUAUACAUGAAUUAAUGAGACUACAUGUAGAAGGCGGUACUAGCA [JL SSNG2 1.22] (Eterna round: R96, puzzle: Same State NG 2)” reads 54 nM.
As to “AGCUAUUAAUCAGGAUAUAGGGACAUGAGGAUCACCCAUGUAUACAUGAUGAAAUGUGGUCACCUCUAGAAGGGAUUACUAACA [SameState NG2 #42] (Eterna round: R96, puzzle: Same State NG 2)”, the “apparent KD of MS2 coat protein” value is, setting by setting: (input ligand: FMN 200 uM) 155 nM; under setting [1], 109 nM; (input ligand: none) 178 nM.
In the same order, the values of “AGCUAUUAAUCAGGAUAUGGUCACAUGAGGAUCACCCAUGUAUAGAUGAUAAAAUGUGGUCUACACUAGAAGGGAUUGCUAACA [SameState NG2 #59] (Eterna round: R96, puzzle: Same State NG 2)” are 89.5 nM, 78.9 nM and 106 nM.
